In the assay the target is T1, p20 domain of mature CgMCA-I (fragment between the cleavages after R54 and K263) (Candida glabrata, UniProt Q6FPX9 55-263).
T1 construct: Candida glabrata metacaspase CgMCA-I, p20 fragment left after cleavage after R54 and after K263; Residues seen in the maps: from after Gly68 (7QP1) or after Ser72 (7QP0) up to before Asn260; Limits are worked out from the cleavage sites found by mass spectrometry (R54, K263); The N-terminal His tag leaves with residues 1-54; source: E. coli T7 express, purified as CgMCA-I; cleaved by its own …
T1 sequence (looked up): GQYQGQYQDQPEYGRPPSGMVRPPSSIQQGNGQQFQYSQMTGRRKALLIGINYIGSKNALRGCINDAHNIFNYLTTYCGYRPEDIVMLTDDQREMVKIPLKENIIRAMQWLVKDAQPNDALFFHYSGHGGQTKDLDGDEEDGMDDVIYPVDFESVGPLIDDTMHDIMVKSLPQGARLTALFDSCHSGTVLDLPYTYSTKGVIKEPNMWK
Put plainly: crystal structure; fully matured CgMCA-I with Ca2+ (7QP1, 3.0 A) and with Mg2+ (7QP0, 1.6 A); N-terminal part and p20-p10 linker cleaved off. To be noted: both partners purified.

B1: p10 domain of mature CgMCA-I (fragment after the cleavage at R307) (domain or fragment, Candida glabrata, UniProt Q6FPX9 308-392, looked up)
chain: QIKFSPADVIMLSGSKDNQTSADTFADGQNIGAMSHAFISVMTRQPQQSYLSLLQNLRNELAGKYSQKPQLSASHPIDVNLQFIM
notes: Candida glabrata metacaspase CgMCA-I, C-terminal p10 fragment left after cleavage after R307; Residues seen in the maps begin after Ile309; Limits are worked out from the cleavage site found by mass spectrometry (R307) and the stated length of 392 residues; also called p10 subunit; source: E. coli T7 express, purified as CgMCA-I; cleaved by its own maturation before or during crystallisation
Regarding B1, the binding result is on record as “binds”.
